Nine substances from patent US20200024330A1 can be followed below.

What all share (test): cell-based or functional assay
Experiment [1] concerns the target HIV-1 Env of isolate MG RM-D-014 (subtype D) (HIV-1).
Experiment [2] concerns the target HIV-1 92UG005 envelope glycoprotein (Env) on pseudovirus (HIV-1).
In experiment [3] the target is HIV-1 Env of isolate MGRM-F1-008 (subtype F) (HIV-1).
In experiment [4] the target is HIV-1 APV_17 Env (pseudovirus) (HIV-1).
Experiment [5] concerns the target HIV-1 THR0.18 Env (pseudovirus) (HIV-1).
The target of experiment [6] is HIV-1 TRJ04551.58 Env (pseudovirus) (HIV-1).
Experiment [7] deals with HIV-1 Env of isolate MG RM-D-018 (subtype D) (HIV-1).
In experiment [8] the target is HIV-1 Env of isolate MG RM-D-020 (subtype D) (HIV-1).
The target of experiment [9] is HIV-1 Env of isolate MGRM-F1-017 (HIV-1).
For experiment [10], the target named is HIV-1 Env of isolate 98CN009 (subtype CRF07_BC) (HIV-1).
For experiment [11], the target named is HIV-1 Env of isolate MGRM-G-024 (HIV-1).
Experiment [12] has as its target HIV-1 APV6 envelope glycoprotein (Env) on pseudovirus (HIV-1).
Experiment [13] has as its target HIV-1 JR-CSF Env L125A (HIV-1 (isolate JR-CSF)) (UniProt P20871).
The target of experiment [14] is HIV-1 JRCSF envelope glycoprotein (Env) on pseudovirus (HIV-1) (UniProt P20871).
For experiment [15], the target named is HIV-1 Env of isolate 92WR020 (HIV-1).
For experiment [16], the target named is HIV-1 Env of isolate MGRM-C-028 (HIV-1).
Experiment [17] deals with HIV-1 Env of isolate MGRM-C-017 (HIV-1).
Experiment [18] has as its target HIV-1 Env of isolate MGRM-F1-004 (subtype F), on pseudovirus (HIV-1).
Experiment [19] addresses HIV-1 Env of isolate MGRM-C-023 (HIV-1).
The target in experiment [20] is HIV-1 Env of isolate 92UG024 (HIV-1).
In experiment [21] the target is HIV-1 Env of isolate MGRM-C-010 (HIV-1).
The target of experiment [22] is HIV-1 Env of isolate MGRM-D-011 (HIV-1).
Experiment [23] deals with HIV-1 Env of isolate MGRM-D-008 (HIV-1).
In experiment [24] the target is HIV-1 Env of isolate MGRM-D-013 (HIV-1).
In experiment [25] the target is HIV-1 Env of isolate MGRM-F1-012 (subtype F), on pseudovirus (HIV-1).
In experiment [26] the target is HIV-1 Env of isolate MGRM-D-022 (HIV-1).
For experiment [27], the target named is HIV-1 Env of isolate MGRM-AG-002 (CRF_AG), on pseudovirus (HIV-1).
The target of experiment [28] is HIV-1 Env of isolate MGRM-C-025 (HIV-1).
Experiment [29] deals with HIV-1 Env of isolate MGRM-D-004 (HIV-1).

5345_I01 (PGT-137) (antibody), sequence (VH): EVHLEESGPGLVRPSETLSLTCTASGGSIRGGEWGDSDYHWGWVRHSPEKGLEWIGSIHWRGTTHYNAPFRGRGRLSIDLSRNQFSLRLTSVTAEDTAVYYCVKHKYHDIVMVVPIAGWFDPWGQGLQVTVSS
5345_I01 (PGT-137) (antibody), sequence (VL): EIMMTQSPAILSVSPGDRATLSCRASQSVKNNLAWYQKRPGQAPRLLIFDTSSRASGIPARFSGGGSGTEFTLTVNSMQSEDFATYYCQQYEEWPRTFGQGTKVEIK
5329_C19 (PGT-136) (antibody), sequence (VH): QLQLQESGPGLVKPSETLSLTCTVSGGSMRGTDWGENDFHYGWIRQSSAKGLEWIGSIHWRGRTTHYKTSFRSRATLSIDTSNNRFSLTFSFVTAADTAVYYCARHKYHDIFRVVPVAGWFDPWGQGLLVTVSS
5329_C19 (PGT-136) (antibody), sequence (VL): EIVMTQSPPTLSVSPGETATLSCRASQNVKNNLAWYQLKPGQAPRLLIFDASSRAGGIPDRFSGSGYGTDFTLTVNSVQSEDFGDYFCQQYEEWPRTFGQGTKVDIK

The term IC50 denotes the concentration at which inhibition is half-maximal. High values mean a need for much substance, low ones inhibition by little substance. In the case of 4838_L06 (PGT-121) (antibody), the IC50 (µg/mL), pseudovirus neutralization in [1] was 0.009 µg/mL; in [3], over 50 µg/mL; in experiment [7], 0.005 µg/mL; in experiment [8] it was 0.01 µg/mL; in [10] it was 0.009 µg/mL. The substance further had an IC50 (ug/ml), neutralizing activity in experiment [2] of over 10 µg/mL. The IC50, pseudovirus neutralization is 0.066 µg/mL in experiment [4], over 50 µg/mL in experiment [5] and 7.09 µg/mL in experiment [6]. For the same substance, the IC50 in experiment [9] was determined as 16.9 µg/mL.

As for 4858_P08 (PGT-123) (antibody), the IC50 (µg/mL), pseudovirus neutralization is 0.009 µg/mL in experiment [1]; over 50 µg/mL in [3]; 0.007 µg/mL in experiment [7]; 0.018 µg/mL in experiment [8]; 0.007 µg/mL in experiment [10]. Besides, the IC50 (ug/ml), neutralizing activity was found to be 2.49 µg/mL in experiment [2], 0.0327 µg/mL in experiment [12] and 0.0423 µg/mL in experiment [14]. The IC50, pseudovirus neutralization was 2.49 µg/mL in experiment [2]; 0.032 µg/mL in experiment [11]; 0.114 µg/mL in [4]; over 50 µg/mL in experiment [5]; 16.9 µg/mL in [6]; 0.0328 µg/mL in experiment [12]. The IC50, pseudovirus neutralization in experiment [14] was 0.0423 µg/mL. Also, the IC80, pseudovirus neutralization in experiment [2] was over 10 µg/mL; in experiment [12] it was 0.145 µg/mL; in [14] it was 0.143 µg/mL. The IC90 (pseudovirus neutralization) in [2] was over 10 µg/mL; in experiment [12], 0.339 µg/mL; in experiment [14], 0.289 µg/mL. Moreover, the IC95, pseudovirus neutralization in experiment [2] was over 10 µg/mL; in experiment [12], 0.726 µg/mL; in experiment [14] it was 0.547 µg/mL. Besides, the Fold IC50 increase relative to wild-type in experiment [13] came out at 2.5 fold. In experiment [9], this substance registered an IC50 of over 50 µg/mL.

For 4877_D15 (PGT-122) (antibody), the IC50 (µg/mL), pseudovirus neutralization was 0.012 µg/mL in [1]; over 50 µg/mL in experiment [3]; 0.007 µg/mL in experiment [7]; 0.007 µg/mL in [8]; 0.013 µg/mL in [10]. Further, the figures for the IC50 (ug/ml), neutralizing activity in experiment [2], in experiment [12] and in experiment [14] were over 10 µg/mL, 0.0851 µg/mL and 0.0727 µg/mL, respectively. Further, the IC50, pseudovirus neutralization is 0.033 µg/mL in experiment [11], 0.25 µg/mL in experiment [4], over 50 µg/mL in experiment [5] and over 50 µg/mL in [6]. The substance also yielded an IC50 in [9] of over 50 µg/mL.

Turning to 5114_A19 (PGT-128) (antibody), the neutralization IC50 in experiment [15] was found to be 0.005 µg/mL. For the same substance, the concentration for half-maximal inhibition (IC50) was 14.4 µg/mL in experiment [16]; 1.06 µg/mL in experiment [17]; 0.026 µg/mL in [19]; over 50 µg/mL in experiment [20]; over 50 µg/mL in [21]; 0.007 µg/mL in experiment [22]. Moreover, the half-inhibitory concentration (IC50) is 0.033 µg/mL in [23]; 8.85 µg/mL in experiment [24]; over 50 µg/mL in experiment [26]; 10.5 µg/mL in experiment [28]; 24.9 µg/mL in experiment [29]. The results for the IC50, pseudovirus neutralization in [18], in experiment [11] and in [25] were 0.027 µg/mL, 0.095 µg/mL and 0.007 µg/mL, respectively. Moreover, the Fold IC50 increase relative to wild-type in [13] stood at 2.9 fold. This substance also registered an IC50, single-round pseudovirus neutralization in [27] of 4.99 µg/mL.

As for 5123_A06 (PGT-125) (antibody), the IC50 (µg/mL), pseudovirus neutralization in experiment [1] is over 50 µg/mL; in experiment [3] it was 0.361 µg/mL; in experiment [7], over 50 µg/mL; in experiment [8] it was over 50 µg/mL; in experiment [10], 0.03 µg/mL. Besides, the IC50 (ug/ml), neutralizing activity in experiment [2] is over 10 µg/mL; in [12], 0.0359 µg/mL; in experiment [14] it was 0.006 µg/mL. The figures for the neutralization IC50 in [2], in experiment [12] and in [14] were over 10 µg/mL, 0.0359 µg/mL and 0.006 µg/mL, respectively. The neutralization IC80 in [2] is over 10 µg/mL; in [12], 0.133 µg/mL; in experiment [14], 0.0196 µg/mL. Besides, the neutralization IC90 in experiment [2] was over 10 µg/mL; in experiment [12], 0.288 µg/mL; in [14] it was 0.0392 µg/mL. Further, the results for the neutralization IC95 in experiment [2], in [12] and in experiment [14] were over 10 µg/mL, 0.597 µg/mL and 0.0741 µg/mL, respectively. For the same substance, the IC50, pseudovirus neutralization was over 50 µg/mL in [11], 8.06 µg/mL in experiment [4], over 50 µg/mL in experiment [5] and 0.019 µg/mL in [6]. For the same substance, the Fold IC50 increase relative to wild-type in [13] was 1.6 fold. In experiment [9], this substance displayed a 50% inhibitory concentration (IC50) of over 50 µg/mL.

On to 5141_B17 (PGT-126) (antibody), for which the IC50 (µg/mL), pseudovirus neutralization in [1] is 0.03 µg/mL; in experiment [3] it was over 50 µg/mL; in experiment [7] it was 0.009 µg/mL; in experiment [8] it was 0.023 µg/mL; in [10], 0.019 µg/mL. Also, the values for the IC50 (ug/ml), neutralizing activity in experiment [2], in experiment [12] and in experiment [14] were 0.0181 µg/mL, 0.0249 µg/mL and 0.0061 µg/mL, respectively. The IC50, pseudovirus neutralization in [11] was over 50 µg/mL; in [4], 0.353 µg/mL; in experiment [5], over 50 µg/mL; in experiment [6] it was 0.025 µg/mL. Moreover, in [13], the Fold IC50 increase relative to wild-type amounted to 1.2 fold. Besides, in [9], the 50% inhibitory concentration (IC50) was over 50 µg/mL.

Take 5145_B14 (PGT-127) (antibody): the IC50 (µg/mL), pseudovirus neutralization in experiment [1] is 0.393 µg/mL; in [3], over 50 µg/mL; in experiment [7] it was 0.021 µg/mL; in [8], 0.015 µg/mL; in [10], 0.09 µg/mL. For the same substance, the IC50, pseudovirus neutralization was over 50 µg/mL in experiment [11], 10.4 µg/mL in experiment [4], over 50 µg/mL in experiment [5] and 0.063 µg/mL in experiment [6]. Also, in experiment [13], the Fold IC50 increase relative to wild-type stood at 1.4 fold. The substance also returned a half-inhibitory concentration (IC50) in experiment [9] of over 50 µg/mL.

The substance 5329_C19 (PGT-136) (antibody) showed a neutralization IC50 in [15] of 2.33 µg/mL. Also, the IC50 in experiment [16] was 33.7 µg/mL; in experiment [17] it was over 50 µg/mL; in experiment [19] it was 3.2 µg/mL; in experiment [20], 0.052 µg/mL; in experiment [21] it was over 50 µg/mL; in experiment [22], over 50 µg/mL. The IC50 in experiment [23], in experiment [24], in experiment [26], in [28] and in experiment [29] was over 50 µg/mL throughout. The IC50, pseudovirus neutralization in experiment [18] is over 50 µg/mL; in experiment [11], 0.152 µg/mL; in [25], over 50 µg/mL. For the same substance, the IC50, single-round pseudovirus neutralization in experiment [27] was over 50 µg/mL.

Substance 5345_I01 (PGT-137) (antibody) returned a neutralization IC50 in [15] of 0.005 µg/mL. For the same substance, the IC50 in experiment [16] is over 50 µg/mL; in [17] it was over 50 µg/mL; in experiment [19] it was 0.23 µg/mL; in experiment [20], 0.106 µg/mL; in [21], over 50 µg/mL; in experiment [22], 6.3 µg/mL. Also, the IC50 in [23], in experiment [24], in experiment [26], in [28] and in [29] was over 50 µg/mL each time. Besides, the IC50, pseudovirus neutralization was 40.3 µg/mL in [18], 0.051 µg/mL in experiment [11] and over 50 µg/mL in experiment [25]. Moreover, the IC50, single-round pseudovirus neutralization in experiment [27] was over 50 µg/mL.
